We go through two molecules from patent US10676765B2, “Methods for producing 3-hydroxy-3-methylbutyric acid” (Global Bioenergies, priority 2015, dated 2020).

What all share (format): biochemical
Experiment [1] in a line: Conversion of 3-methylcrotonyl-CoA and ADP into 3-methylcrotonic acid and ATP, phosphate butyryltransferase from Enterococcus faecalis with butyrate kinases. As to conditions: 4 mM 3-methylcrotonyl-CoA, 4 mM ADP, 0.2 mg/ml each enzyme, 20 min, 30° C. On the procedure:
(§1) The enzymatic assays were conducted in a total reaction volume of 0.2 ml.
(§2) The standard reaction mixture contained:
(§3) 50 mM potassium phosphate buffer pH 7.5
(§4) 4 mM 3-methylcrotonyl-CoA
(§5) 0.2 mg/ml of purified phosphate butyryltransferase from Enterococcus faecalis
(§6) 0.2 mg/ml of purified butyrate kinase from Lactobacillus casei or Geobacillus sp.
A series of controls was performed in parallel (Assays C-H Table 10).
(§7) Assays were then incubated for 20 min with shaking at 30° C.
After an incubation period, the reactions were stopped by heating the reaction medium 4 min at 90° C. The samples were centrifuged, filtered through a 0.22 μm filter and the clarified supernatants were transferred into a clean vial for further analysis. The consumption of ADP and 3-methylcrotonyl-CoA and the formation of ATP and 3-methylcrotonic acid and free coenzyme A (CoA-SH) were followed by HPLC analysis according to the methods described in Example 10 and Example 12.

A short description of experiment [2]: Conversion of 3-hydroxyisovaleryl-CoA and ADP into 3-hydroxyisovaleric acid and ATP, phosphate butyryltransferase from Enterococcus faecalis with butyrate kinases. As to conditions: 4 mM 3-hydroxyisovaleryl-CoA, 4 mM ADP, 0.2 mg/ml each enzyme, 20 min, 30° C. On the procedure:
as §1, §2, §3
(§8) 4 mM 3-hydroxyisovaleryl-CoA
as §5, §6
A series of controls were performed in parallel (Assays C-H Table 5).
(§9) The assays were then incubated for 20 min with shaking at 30° C.
After an incubation period, the reactions were stopped by heating the reaction medium 4 min at 90° C. The samples were centrifuged, filtered through a 0.22 μm filter and the clarified supernatants were transferred into a clean vial for further analysis. The consumption of ADP and 3-hydroxyisovaleryl-CoA, and the formation of ATP and 3-hydroxyisovaleric acid and free coenzyme A (CoA-SH) were followed by HPLC analysis according to the methods described in Example 10.

Experiment [3] is described as follows: Conversion of 3-hydroxyisovaleryl-CoA and ADP into 3-hydroxyisovaleric acid and ATP, phosphate butyryltransferase from Bacillus subtilis with butyrate kinases. As to conditions: 4 mM 3-hydroxyisovaleryl-CoA, 4 mM ADP, 0.2 mg/ml each enzyme, 20 min, 30° C. On the procedure:
as §1, §2, §3, §8
(§10) 0.2 mg/ml of purified phosphate butyryltransferase from Bacillus subtilis
as §6
A series of controls were performed in parallel (Assays C-H; Table 4).
as §9
After an incubation period, the reactions were stopped by heating the reaction medium 4 min at 90° C. The samples were centrifuged, filtered through a 0.22 μm filter and the clarified supernatants were transferred into a clean vial for further analysis. The consumption of ADP and 3-hydroxyisovaleryl-CoA, and the formation of ATP, 3-hydroxyisovaleric acid and free coenzyme A (CoA-SH) were followed by using HPLC-based methods.
HPLC analysis was performed using 1260 Infinity LC System (Agilent), equipped with column heating module and RI detector. 2 μl of samples were separated on Polaris C18-A column (150×4.6 mm, 5 μm particle size, column temp. 30° C.) with a mobile phase flow rate of 1.5 ml/min. The separation was performed using 8.4 mM sulfuric acid in H2O/MeOH mixed solution (99/1) (V/V). In these conditions, the retention time of ADP, ATP and 3-hydroxyisovaleric acid were 2.09 min, 2.26 min and 5.01 min, respectively. […]

The nature of experiment [4]: Conversion of 3-methylcrotonyl-CoA and ADP into 3-methylcrotonic acid and ATP, phosphate butyryltransferase from Bacillus subtilis with butyrate kinases. As to conditions: 4 mM 3-methylcrotonyl-CoA, 4 mM ADP, 0.2 mg/ml each enzyme, 20 min, 30° C. On the procedure: as §1, §2, §3, §4, §10, §6, §7
After an incubation period, the reactions were stopped by heating the reaction medium 4 min at 90° C. The samples were centrifuged, filtered through a 0.22 μm filter and the clarified supernatants were transferred into a clean vial for further analysis. The consumption of ADP and 3-methylcrotonyl-CoA, and the formation of ATP, 3-methylcrotonic acid and free coenzyme A (CoA-SH) were followed by using HPLC-based methods.
HPLC analysis was performed using the 1260 Infinity LC System (Agilent) equipped with a column heating module and an RI detector. 2 μl of samples were separated on a Polaris C18-A column (150×4.6 mm, 5 μm particle size, column temp. 30° C.) with a mobile phase flow rate of 1.5 ml/min. The consumption of ADP and the formation of ATP were followed by HPLC analysis according to the methods described in Example 10.
HPLC analysis was performed using the 1260 Infinity LC System (Agilent) equipped with a column heating module and a UV detector (260 nm). […]

Experiment [5] in a line: Formation of 3-hydroxyisovaleryl phosphate from 3-hydroxyisovaleryl-CoA and phosphate (MS). As to conditions: 10 mM 3-hydroxyisovaleryl-CoA, mass spectrometry. How it is done:
The studied enzymatic reaction was carried out under the following conditions:
10 mM 3-hydroxyisovaleryl-CoA (3-hydroxy-3-methylbutyryl-CoA)
The purified phosphate butyryltransferase from B. subtilis was resuspended in 5 mM potassium phosphate pH 7.5.
A control assay without enzyme was performed in parallel.
The enzymatic assay was initiated by the addition of 20 μl of enzyme preparation into 20 μl of reaction mixture. The formation of 3-hydroxyisovaleryl phosphate (3-hydroxy-3-methylbutyryl phosphate) was analyzed by Mass Spectrometry (MS). 5 μl of the assay was introduced into the mass spectrometer via a loop injection.
Flow injection analyses were performed using a Dionex Ultimate chromatographic system (Thermo Fisher Scientific) at a flow rate of 100 μL/min with a mobile phase composed of H2O containing 10 mM ammonium formate pH 9.45 and acetonitrile 75:25 v/v. Detection was performed with a Q-exactive spectrometer (Thermo Fisher Scientific) fitted with an electrospray ionization source (negative ionization mode at a resolution of 70000 m/Δm, FWHM at m/z 200). Non-resonant induced dissociation experiments—Higher-energy C-trap dissociation (HCD)—were acquired at normalized collision energy of 10%. Raw data were manually inspected using the Qualbrowser module of Xcalibur version 3.0 (Thermo Fisher Scientific). […]

B1: phosphate butyryltransferase from Enterococcus faecalis: phosphate butyryltransferase (EC 2.3.1.19) from Enterococcus faecalis MTUP9, Uniprot A0A038BNC2 (protein, listed as Enterococcus faecalis)
chain: MITVSIAGGSQPEILQLVKKALKEAEQPLQFIVFDTNENLDTENLWKYVHCSDEATVAQEAVSLVATGQAQILLKGIIQTHTLLKEMLKSEHQLKNKPILSHVAMVELPAGKTFLLTDCAMNIAPTQATLIEIVENAKEVAQKLGLHHPKIALLSAAENFNPKMPSSVLAKEVTAHFNGQQEATVFGPLSLDLATSEEAVAHKRYSGPIMGDADILVVPTIDVGNCLYKSLTLFGHAKVGGTIVGTKVPVVLTSRSDSTESKFHSLRFAMRQV
modifications: MTUP9
notes: phosphate butyryltransferase (EC 2.3.1.19) from Enterococcus faecalis MTUP9, Uniprot A0A038BNC2
Take B1: in experiment [1], the “production of 3-methylcrotonic acid and ATP” value was “significant production of 3-methylcrotonic acid without simultaneous generation of ATP”. Also, the “production of 3-hydroxyisovaleric acid and ATP” value in experiment [2] is reported as “significant production of 3-hydroxyisovaleric acid, without simultaneous generation of ATP”.

B2: phosphate butyryltransferase from Bacillus subtilis: phosphate butyryltransferase (EC 2.3.1.19) from Bacillus subtilis (strain 168), Uniprot P54530 (protein, listed as Bacillus subtilis)
chain: MKLKDLIGKASIHKNKTIAVAHAEDEEVIRAVKLAAEHLSARFLLTGDSKKLNELTSSMQGHQVEIVHANTPEESAKLAVRAVHHKTADVLMKGNVPTSVLLKAVLNRQEGLRSASVLSHVAVFDIPDFDRLMFVTDSAMNIAPSLEELRQILQNAVHVAHAVGNNMPKAAALAAVETVNPKMEATVNAAALAQMYKRGQIKGCIVDGPLALDNAVSQIAAAQKKISGDVAGNADILLVPTIEAGNILYKSLIYFAKASVAAVITGAKAPIALTSRADSAENKLYSIALAICASEEYTH
modifications: strain 168
notes: phosphate butyryltransferase (EC 2.3.1.19) from Bacillus subtilis (strain 168), Uniprot P54530
As for B2, the “production of 3-hydroxyisovaleric acid and ATP” value in experiment [3] is recorded as “significant production of 3-hydroxyisovaleric acid, without simultaneous generation of ATP”. The “production of 3-methylcrotonic acid and ATP” value in experiment [4] is on record as “significant production of 3-methylcrotonic acid without a simultaneous generation of ATP”. In addition, the “generation of 3-hydroxyisovaleryl phosphate” value in experiment [5] is recorded as “generation of 3-hydroxyisovaleryl phosphate in the enzyme catalyzed assay was proved by MS technique”.
